Molecular target: Human GPA33 (Novoprotein), recombinant protein immobilized on CM5 chips (human) (UniProt Q99795)
Experiment: SPR (Biacore T100), GPA33 recombinant protein immobilized on CM5 chip, antibody flowed over

Chain of Human GPA33 (Novoprotein), recombinant protein immobilized on CM5 chips (human) (Q99795 22-235 limits assumed): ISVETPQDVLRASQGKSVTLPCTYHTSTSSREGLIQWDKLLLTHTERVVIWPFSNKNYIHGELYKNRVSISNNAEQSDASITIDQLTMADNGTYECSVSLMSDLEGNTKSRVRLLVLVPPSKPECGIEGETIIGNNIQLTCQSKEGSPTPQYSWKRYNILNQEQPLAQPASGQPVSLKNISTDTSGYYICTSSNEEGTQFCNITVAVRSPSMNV

Kd: 1.59 nM
koff: 0.00294 s⁻¹
kon: 1.85e+06 M⁻¹ s⁻¹
Substance: hA33-mC825 BsAb (original humanized hA33 in hA33-mC825 bispecific format, Cheal et al. 2016) (bispecific antibody)
